Reference: patent US12384850 (SYSTIMMUNE, dated 2025)

B1: SI-35E25 (bispecific antibody, not shown: small tags and cut ends)
heavy (part 1 of 7): ALVMTQSPSTLSASVGDRVTINCQASEDIDTYLAWYQQKPGKAPKLLIFYASDLASGVPSRFSGSGSGTEFTLTISSLQPDDFATYYCQGGYYTSSADTRGAFGGGTKVEIK
heavy (part 2 of 7): QSLVESGGGLVQPGGSLRLSCAASGFSFSSNYWICWVRQAPGKGLEWIACIYVGSSGDTYYASSAKGRFTISRDNSKNTLYLQMNSLRAEDTAVYYCARDSSSYYMFNLWGQGTLVTVSS
heavy (part 3 of 7): not shown
heavy (part 4 of 7): EVQLVESGGGLVQPGGSLRLSCAASGFSLNNYWMSWVRQAPGKGLEWIGTISSGAYTWFATWATGRFTISRDNSKNTLYLQMNSLRAEDTAVYYCARYSSTTDWTYFNIWGQGTLVTVSS
heavy (part 5 of 7): DIQMTQSPSTLSASVGDRVTITCQASQSINNYLAWYQQKPGKAPKLLIYRASTLESGVPSRFSGSGSGTEFTLTISSLQPDDFATYYCQSYNGVGRTAFGGGTKVEIK
heavy (part 6 of 7): EVQLVESGGGLVQPGGSLRLSCAASGFTISTNAMSWVRQAPGKGLEWIGVITGRDITYYASWAKGRFTISRDNSKNTLYLQMNSLRAEDTAVYYCARDGGSSAITSNNIWGQGTLVTVSS
heavy (part 7 of 7): DVVMTQSPSTLSASVGDRVTINCQASESISSWLAWYQQKPGKAPKLLIYEASKLASGVPSRFSGSGSGTEFTLTISSLQPDDFATYYCQGYFYFISRTYVNSFGGGTKVEIK
light: AYDMTQSPSSVSASVGDRVTIKCQASEDIYSFLAWYQQKPGKAPKLLIHSASSLASGVPSRFSGSGSGTDFTLTISSLQPEDFATYYCQQGYGKNNVDNAFGGGTKVEIKRTVAAPSVFIFPPSDEQLKSGTASVVCLLNNFYPREAKVQWKVDNALQSGNSQESVTEQDSKDSTYSLSSTLTLSKADYEKHKVYACEVTHQGLSSPVTKSFNRGEC
notes: Tetra-specific; the listing has only VHv3/VLv2
B2: SI-35E20 (bispecific antibody, not shown: small tags and cut ends)
heavy (part 1 of 7): DVVMTQSPSSVSASVGDRVTITCQASQNIRTYLSWYQQKPGKAPKLLIYAAANLASGVPSRFSGSGSGTDFTLTISDLEPGDAATYYCQSTYLGTDYVGGAFGGGTKVEIK
heavy (part 2 of 7): RSLVESGGGLVQPGGSLRLSCTASGFTISSYHMQWVRQAPGKGLEYIGTISSGGNVYYASSARGRFTISRPSSKNTVDLQMNSLRAEDTAVYYCARDSGYSDPMWGQGTLVTVSS
heavy (part 3 of 7): not shown
heavy (part 4 of 7): EVQLLESGGGLVQPGGSLRLSCAASGFTISRYHMTWVRQAPGKGLEWIGHIYVNNDDTDYASSAKGRFTISRDNSKNTLYLQMNSLRAEDTATYFCARLDVGGGGAYIGDIWGQGTLVTVSS
heavy (part 5 of 7): DIQMTQSPSSLSASVGDRVTITCQSSQSVYNNNDLAWYQQKPGKVPKLLIYYASTLASGVPSRFSGSGSGTDFTLTISSLQPEDVATYYCAGGYDTDGLDTFAFGGGTKVEIK
heavy (part 6 of 7): B1 heavy (part 6 of 7)
heavy (part 7 of 7): B1 heavy (part 7 of 7)
light: B1 light
notes: as for B1
B3: SI-35E26 (bispecific antibody, not shown: small tags and cut ends)
heavy (part 1 of 7): B2 heavy (part 1 of 7)
heavy (part 2 of 7): B2 heavy (part 2 of 7)
heavy (part 3 of 7): not shown
heavy (part 4 of 7): B1 heavy (part 4 of 7)
heavy (part 5 of 7): B1 heavy (part 5 of 7)
heavy (part 6 of 7): B1 heavy (part 6 of 7)
heavy (part 7 of 7): B1 heavy (part 7 of 7)
light: B1 light
notes: as for B1
B4: SI-35E19 (bispecific antibody, not shown: small tags and cut ends)
heavy (part 1 of 7): B1 heavy (part 1 of 7)
heavy (part 2 of 7): B1 heavy (part 2 of 7)
heavy (part 3 of 7): not shown
heavy (part 4 of 7): B2 heavy (part 4 of 7)
heavy (part 5 of 7): B2 heavy (part 5 of 7)
heavy (part 6 of 7): B1 heavy (part 6 of 7)
heavy (part 7 of 7): B1 heavy (part 7 of 7)
light: B1 light
notes: as for B1

target: T1, human PD-L1 (human, UniProt Q9NZQ7 19-290); experiment: FACS on human PD-L1 transfected CHO cells
T1 construct: whole, on cells; also called PDL1 expressing CHO cells; human PD-L1 transfected CHO cells
T1 sequence (Q9NZQ7 19-290): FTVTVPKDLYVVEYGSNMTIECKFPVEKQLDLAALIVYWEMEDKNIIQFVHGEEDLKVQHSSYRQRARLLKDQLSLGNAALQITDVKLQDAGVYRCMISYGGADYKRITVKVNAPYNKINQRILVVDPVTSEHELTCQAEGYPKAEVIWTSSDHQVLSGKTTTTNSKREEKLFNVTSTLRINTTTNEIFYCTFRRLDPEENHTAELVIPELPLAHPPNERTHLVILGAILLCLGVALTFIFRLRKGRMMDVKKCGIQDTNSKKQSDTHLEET
Description: (§1) Example 3: FACS Analysis of Tetra-Specific GNC Antibody Binding to Human PDL1 Transfected CHO Cells The tetra-specific GNC antibodies listed in TABLEs 3 and 4 were tested for binding to Chinese hamster ovary cells (CHO) cells stably expressing full length human ROR1. Antibodies were prepared at 2× final concentration and titrated 1:5 across 3 wells of a 96 well plate in 50 ul of PBS/2% FBS and then 5,000 ROR1-CHO cells in 50 ul PBS/2% FBS were added. This mixture was incubated for 30 minutes on ice, washed once with 200 ul PBS/2% FBS, and then the secondary antibody PE Goat anti-Human IgG Fc at 1:1000 dilution of stock was added, and this mixture was incubated for 30 minutes on ice. Cells were washed 2×200 ul PBS/2% FBS, resuspended in 50 ul PBS/2% FBS and analyzed on a BD LSRFORTESSA and the binding profile is shown in FIG. 6.

binding result	Binder
binds	B1
binds	B2
binds	B3
binds	B4

target: T2, full-length human ROR1 (human, UniProt Q01973 30-937); experiment: FACS on CHO cells stably expressing full-length human ROR1
T2 construct: whole, on cells; also called human ROR1 transfected CHO cells; ROR1-CHO cells
T2 sequence (Q01973 30-937): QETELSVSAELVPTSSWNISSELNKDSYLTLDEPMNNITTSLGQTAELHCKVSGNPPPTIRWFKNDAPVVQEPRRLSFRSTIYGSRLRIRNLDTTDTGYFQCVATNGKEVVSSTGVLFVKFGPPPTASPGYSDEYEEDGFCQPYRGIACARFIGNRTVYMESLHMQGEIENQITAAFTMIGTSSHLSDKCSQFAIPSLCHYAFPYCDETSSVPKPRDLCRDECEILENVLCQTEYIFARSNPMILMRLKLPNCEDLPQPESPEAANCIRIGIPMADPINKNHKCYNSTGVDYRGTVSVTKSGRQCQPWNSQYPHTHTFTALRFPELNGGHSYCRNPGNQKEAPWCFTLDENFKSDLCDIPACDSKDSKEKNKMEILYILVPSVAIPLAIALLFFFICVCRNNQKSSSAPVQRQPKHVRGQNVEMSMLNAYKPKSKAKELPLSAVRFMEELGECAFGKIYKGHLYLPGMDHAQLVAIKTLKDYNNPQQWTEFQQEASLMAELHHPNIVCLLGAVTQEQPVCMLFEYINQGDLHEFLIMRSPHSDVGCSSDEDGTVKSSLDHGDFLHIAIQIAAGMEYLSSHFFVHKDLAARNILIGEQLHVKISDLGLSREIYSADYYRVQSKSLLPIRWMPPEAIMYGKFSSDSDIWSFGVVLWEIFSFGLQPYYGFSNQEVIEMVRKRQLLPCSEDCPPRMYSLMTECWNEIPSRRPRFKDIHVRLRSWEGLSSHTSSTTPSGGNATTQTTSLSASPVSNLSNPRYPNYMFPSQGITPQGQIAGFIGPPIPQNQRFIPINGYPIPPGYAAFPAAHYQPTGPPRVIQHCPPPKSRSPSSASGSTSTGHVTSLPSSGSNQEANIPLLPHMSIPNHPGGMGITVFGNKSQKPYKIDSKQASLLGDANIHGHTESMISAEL
Description: as §1, with “Example 1:” for “Example 3:”, “Tetra-Specific Specific” for “Tetra-Specific GNC”, “Human ROR1” for “Human PDL1”, “expressing a […]” for “expressing full length”, “FIG. 4.” for “FIG. 6.”

binding result	Binder
no binding	B1
binds	B2
no binding	B3
binds	B4

target: T3, human 41BB (human, UniProt Q07011 24-255); experiment: FACS on human 41BB transfected CHO cells
T3 construct: whole, on cells; also called 41BB expressing CHO cells; human 41BB transfected CHO cells
T3 sequence (Q07011 24-255): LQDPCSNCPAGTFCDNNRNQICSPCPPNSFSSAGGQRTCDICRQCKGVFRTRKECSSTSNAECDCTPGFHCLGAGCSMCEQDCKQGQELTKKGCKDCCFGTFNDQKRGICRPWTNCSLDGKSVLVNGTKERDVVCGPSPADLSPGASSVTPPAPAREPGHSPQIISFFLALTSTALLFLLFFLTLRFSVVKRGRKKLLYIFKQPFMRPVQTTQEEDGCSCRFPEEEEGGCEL
Description: as §1, with “2:” for “3:”, “41BB” for “PDL1”, “a […]” for “full length”, “5. All of the tetra-specific GNC antibodies except for the control SI-27E12 contain a 41BB binding domain, 460C3, 420H5, or 466F6 and bound to 41BB expressing CHO cells with varying intensity.” for “6.”

binding result	Binder
binds	B1
binds	B2
binds	B3
binds	B4
